Publication doi:10.64898/2025.12.16.694593 (bioRxiv, 2025)

B1: His-SNAP-Mtb Ku (natural protein)
chain: MRAIWTGSIAFGLVNVPVKVYSATADHDIRFHQVHAKDNGRIRYKRVCEACGEVVDYRDLARAYESGDGQMVAITDDDIASLPEERSREIEVLEFVPAADVDPMMFDRSYFLEPDSKSSKSYVLLAKTLAETDRMAIVHFTLRNKTRLAALRVKDFGKREVMMVHTLLWPDEIRDPDFPVLDQKVEIKPAELKMAGQVVDSMADDFNPDRYHDTYQEQLQELIDTKLEGGQAFTAEDQPRLLDEPEDVSDLLAKLEASVKARSKANSNVPTPP

Columns and labels:
[1] = molecular target: His-SNAP-Mtb Ku (Mycobacterium tuberculosis) (UniProt P9WKD9); assay: SEC
Mtb LigD WT = Mtb LigD WT (Mycobacterium tuberculosis, UniProt P9WNV3 1-759); assay: […]
Mtb LigD WT, sequence (P9WNV3 whole entry): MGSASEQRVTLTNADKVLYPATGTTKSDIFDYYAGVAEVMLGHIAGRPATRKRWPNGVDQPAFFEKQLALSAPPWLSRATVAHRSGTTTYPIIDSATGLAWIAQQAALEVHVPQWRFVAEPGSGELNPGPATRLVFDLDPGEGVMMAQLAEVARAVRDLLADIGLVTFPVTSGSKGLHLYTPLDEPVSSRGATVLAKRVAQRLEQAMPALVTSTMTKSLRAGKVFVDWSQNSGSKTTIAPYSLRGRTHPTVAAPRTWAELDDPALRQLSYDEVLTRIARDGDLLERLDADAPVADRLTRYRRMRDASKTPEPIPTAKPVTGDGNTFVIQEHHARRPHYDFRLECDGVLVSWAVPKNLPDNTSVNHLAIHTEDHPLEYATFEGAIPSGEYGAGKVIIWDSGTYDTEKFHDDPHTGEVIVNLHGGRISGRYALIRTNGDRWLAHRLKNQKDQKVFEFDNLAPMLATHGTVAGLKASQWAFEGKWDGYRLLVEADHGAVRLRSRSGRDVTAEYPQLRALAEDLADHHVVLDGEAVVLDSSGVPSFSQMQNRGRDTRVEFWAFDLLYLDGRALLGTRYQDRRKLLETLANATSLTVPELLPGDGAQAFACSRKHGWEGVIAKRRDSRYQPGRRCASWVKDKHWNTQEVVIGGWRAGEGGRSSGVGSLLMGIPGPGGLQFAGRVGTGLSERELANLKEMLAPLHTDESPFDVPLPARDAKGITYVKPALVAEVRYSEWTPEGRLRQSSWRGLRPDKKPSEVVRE

Molecule	stoichiometry N [1]	binding result (Mtb LigD WT)
His-SNAP-Mtb Ku (from UniProt P9WKD9 1-273) (natural protein)	2	
B1		binds
